Patent US20090010911A1, “METHODS AND COMPOSITIONS FOR AFFECTING CYCLOPHILIN A REGULATION OF KINASES IN MODULATING CELLULAR ACTIVITIES” (IOWA STATE UNIVERSITY RESEARCH FOUNDATION, INC., priority 2007, published 2009)
Blank lines part the entries; values can stand above or below the substance they belong to.

Legend:
Itk LKD enzyme = molecular target: T1, Itk LKD enzyme (Mus musculus, UniProt Q03526); assay: Quantitative kinase assay, Km determination for Peptide B and PLCγ1 SH2C-Peptide B fusion; type: biochemical; details: phosphorylation by Itk LKD enzyme 0.9 μM, 200 μM ATP, room temperature
T1 construct: linker kinase domain (Itk LKD); made in house; host or cells: Sf9 insect cells (baculovirus), co-infected 1:1 with Lck baculovirus
T1 sequence (Q03526 344-625 limits assumed): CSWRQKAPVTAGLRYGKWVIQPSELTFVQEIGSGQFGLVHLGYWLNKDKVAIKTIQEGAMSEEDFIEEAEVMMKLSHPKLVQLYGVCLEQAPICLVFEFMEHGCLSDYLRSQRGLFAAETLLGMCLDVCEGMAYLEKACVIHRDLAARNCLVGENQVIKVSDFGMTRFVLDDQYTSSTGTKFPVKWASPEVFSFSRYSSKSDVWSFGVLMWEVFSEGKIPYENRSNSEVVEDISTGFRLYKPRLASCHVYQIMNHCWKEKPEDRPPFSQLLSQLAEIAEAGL
Description: 5(a) Construction of a PLCγ1 SH2C-Peptide B fusion protein was based on alignment of Y783 within the PLCγ1 linker and the Tyr of Peptide B. The 14 amino acids of Peptide B were used to replace the last 16 amino acids of PLCγ1 SH2C-Y783-. The Tyr that is phosphorylated in each substrate is boxed. A mutant construct is also shown that contains serine in place of the tyrosine of peptide B. This site was mutated to serine instead of phenylalanine due to solubility problems associated with the Tyr to Phe mutation. 5(b) FLAG-tagged Itk LKD enzyme (1 μM) was incubated with 20 μM of the PLCγ1 SH2C-Peptide B fusion protein (lane 4) or 20 μM of the PLCγ1 SH2C-Peptide B(YS) mutant protein (lane 5) in an in vitro kinase assay. Lanes 1-3 are Itk enzyme alone, PLCγ1 SH2C-Peptide B substrate alone and PLCγ1 SH2C-Peptide B(YS) substrate alone, respectively, that have each been subjected to the same in vitro kinase assay conditions. (c & d) FLAG-tagged Itk LKD enzyme was incubated with increasing amounts of biotinylated PLCγ1 SH2C-Peptide B 5(c) or biotinylated Peptide B alone 5(d) in an in vitro kinase assay. 5(e) Kinetic parameters describing phosphorylation of Peptide B and the PLCγ1 SH2C-Peptide B fusion protein by Itk. Data shown are the average of two independent experiments. […]

full length Itk = molecular target: T2, full length Itk (Mus musculus, UniProt Q03526); assay: In vitro Itk kinase assay using Peptide B as the substrate (initial velocities); type: biochemical; details: CypA to Itk 0 to 100 times excess; Itk 100 and 600 nM
T2 construct: made in house; host or cells: Sf9 insect cells (baculovirus), co-infected 1:1 with Lck baculovirus
T2 sequence (Q03526 1-625): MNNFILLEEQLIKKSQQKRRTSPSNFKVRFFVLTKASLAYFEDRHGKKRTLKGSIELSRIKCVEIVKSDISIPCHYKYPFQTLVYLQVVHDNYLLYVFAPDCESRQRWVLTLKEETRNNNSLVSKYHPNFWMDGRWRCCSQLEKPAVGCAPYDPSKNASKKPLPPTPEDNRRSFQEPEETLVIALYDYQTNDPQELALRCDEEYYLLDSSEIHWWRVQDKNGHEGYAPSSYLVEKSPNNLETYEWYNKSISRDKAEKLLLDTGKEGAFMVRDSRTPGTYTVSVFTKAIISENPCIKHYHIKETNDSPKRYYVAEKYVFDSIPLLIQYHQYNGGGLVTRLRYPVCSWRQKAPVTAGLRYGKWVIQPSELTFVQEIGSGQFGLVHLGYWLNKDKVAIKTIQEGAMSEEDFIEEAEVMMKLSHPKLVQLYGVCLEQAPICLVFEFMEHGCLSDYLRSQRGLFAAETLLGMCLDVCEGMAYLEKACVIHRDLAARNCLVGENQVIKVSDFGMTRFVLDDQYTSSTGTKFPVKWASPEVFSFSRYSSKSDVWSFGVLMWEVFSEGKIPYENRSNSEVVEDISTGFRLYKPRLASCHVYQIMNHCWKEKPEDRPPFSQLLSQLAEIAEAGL
Procedure: Substrate used in each experiment is indicated above each set of blots. 4(a) (left) Itk 32 substrate was incubated with Itk full-length enzyme as before (lane 1), or with Itk 32 domain:free Itk SH2 domain in ratios of 1:10, 1:25 or 1:50 (lanes 2-4, respectively) or equivalent ratios of PI3K N-terminal SH2 domain (lanes 5-7) and subjected to an in vitro kinase assay. […] Coomassie stain and an anti-FLAG blot (bottom panels) show protein levels. (right) The PLCγ1 SH2 domain competes with the PLCγ1 substrate in a similar manner. Lane 1 contains only Itk enzyme and PLCγ1 SH2C-Y783-substrate without additional free SH2 domain. Ratios of free SH2 domain to substrate are 1:5, 1:10 or 1:50 in lanes 2-4, respectively and equivalent ratios of PI3K SH2 domain are used in lanes 5-7. Coomassie stain of the gel and an anti-Itk blot (bottom panels) show protein levels. 4(b) Same experiment as shown in (a) using the Grb2 SH2 domain as a control. (left) Itk 32 substrate was incubated with Itk full-length enzyme (lane 1), or with Itk 32 domain:free Itk SH2 domain in ratios of 1:10 and 1:25 (lanes 2 & 3) or equivalent ratios of Grb2 SH2 domain (lanes 4 & 5) and subjected to an in vitro kinase assay. […]
The ratio of CypA to Itk varied between o and 100 times excess CypA. […] No change in Peptide B phosphorylation is detected. […]

Itk full-length enzyme [1] = molecular target: T3, Itk full-length enzyme (Mus musculus, UniProt Q03526); assay: In vitro kinase assay with western blotting, phosphorylation of SH2 domain-containing substrates with added free SH2 domain or CypA; type: biochemical
T3 construct: Full-length Itk, Btk and Tec and the Itk kinase domain fragments were PCR amplified; made in house; host or cells: Sf9 insect cells (baculovirus), co-infected 1:1 with Lck baculovirus
T3 sequence (Q03526 1-625): T2 sequence (Q03526 1-625)
Procedure: Substrate used in each experiment is indicated above each set of blots. 4(a) (left) Itk 32 substrate was incubated with Itk full-length enzyme as before (lane 1), or with Itk 32 domain:free Itk SH2 domain in ratios of 1:10, 1:25 or 1:50 (lanes 2-4, respectively) or equivalent ratios of PI3K N-terminal SH2 domain (lanes 5-7) and subjected to an in vitro kinase assay. […] Coomassie stain and an anti-FLAG blot (bottom panels) show protein levels. (right) The PLCγ1 SH2 domain competes with the PLCγ1 substrate in a similar manner. Lane 1 contains only Itk enzyme and PLCγ1 SH2C-Y783-substrate without additional free SH2 domain. Ratios of free SH2 domain to substrate are 1:5, 1:10 or 1:50 in lanes 2-4, respectively and equivalent ratios of PI3K SH2 domain are used in lanes 5-7. Coomassie stain of the gel and an anti-Itk blot (bottom panels) show protein levels. 4(b) Same experiment as shown in (a) using the Grb2 SH2 domain as a control. (left) Itk 32 substrate was incubated with Itk full-length enzyme (lane 1), or with Itk 32 domain:free Itk SH2 domain in ratios of 1:10 and 1:25 (lanes 2 & 3) or equivalent ratios of Grb2 SH2 domain (lanes 4 & 5) and subjected to an in vitro kinase assay. (right) Identical experiment following PLCγ1 substrate phosphorylation in the presence of the PLCγ1 and Grb2 SH2 domains. Lane 1 is PLCγ1 substrate alone; lanes 2 & 3 are PLCγ1 substrate:PLCγ1 SH2 domain in a 1:10 and 1:25 ratio, respectively and lanes 4 & 5 are identical ratios of PLCγ1 substrate:Grb2 SH2 domain. 4(c) The Itk SH2 domain competes with autophosphorylation of Y180 within full length Itk. For lanes 2-4, the amount of free SH2 domain is the same as used in panel (a), lanes 2-4. No exogenous SH2 domain has been added in lane 1 and full length Itk is both the enzyme and the substrate. Coomassie stain and an anti-FLAG blot (bottom panels) show protein levels. […] Initial velocities are shown for phosphorylation of peptide B (sequence shown in FIG. 5a) by full length Itk in the absence (column 1) and presence (column 2 and 3) of Itk SH2 domain. […]

Itk = molecular target: T4, Itk (Mus musculus, UniProt Q03526); assay: Pull-down experiment using purified Itk and purified CypA; type: binding; details: full length Itk or kinase domain alone immobilized on beads
T4 construct: Full-length Itk, Btk and Tec and the Itk kinase domain fragments were PCR amplified; made in house; host or cells: Sf9 insect cells (baculovirus), co-infected 1:1 with Lck baculovirus
T4 sequence (Q03526 1-625): T2 sequence (Q03526 1-625)
Procedure: In FIG. 16 full length Itk is immobilized on beads that are incubated with CypA. In FIG. 17 the kinase domain alone is immobilized on beads and incubated with CypA. […] The kinase domain alone contains the substrate docking site and so it is likely that CypA interacts with the Itk kinase domain in a manner that either completely or partially occludes the SH2 docking site.

Itk full-length enzyme [2] = molecular target: T3, Itk full-length enzyme; details: published data (Brazin et al. 2002); cited from earlier work

Substance: Aminohexanoyl biotin-EQEDEPEGIYGVLF-NH2 [Peptide B, reference compound]
Km (Itk LKD enzyme): 87 µM

effect on phosphorylation kinetics of Peptide B (full length Itk): no effect | effect on phosphorylation of Itk SH3-SH2 protein substrate (Y180) (Itk full-length enzyme [1]; CypA:Itk 32 ratios 0.1:1, 1:1, 10:1, 25:1, signal reduced at 10:1 and 25:1): reduce phosphorylation | interaction with Itk (pull-down) (Itk): interacts directly with Itk
Substance: CypA: peptidyl-prolyl isomerase Cyclophilin A, target of the immunosuppressive drug cyclosporin A
effect on autophosphorylation of Itk in an in vitro kinase assay (Itk full-length enzyme [2]): reduces autophosphorylation of Itk

inhibition of PLCγ1 SH2C-Y783- substrate phosphorylation by free SH2 domain (Itk full-length enzyme [1]; substrate:free SH2 domain ratios 1:5 to 1:50): do not inhibit | inhibition of Itk 32 substrate phosphorylation (Y180) by free SH2 domain (Itk full-length enzyme [1]; substrate:free SH2 domain ratios 1:10, 1:25, 1:50): do not inhibit
Substance: Grb2 SH2 domain: Grb2 SH2 domain, control SH2 domain [reference compound]
